Measured values reported in the supplement of paper PMC9112550, “Optimization of the antimicrobial peptide Bac7 by deep mutational scanning” (BMC Biology, 2022).

Each sequence was assayed on Escherichia coli TOP10 (assay: shrunken log2 fold change of peptide-encoding DNA abundance (4.5 h post-induction vs induction); higher = less antimicrobial activity (less host growth inhibition)). Settings: time post-induction: 4.5 h; library: site-saturation at positions 5, 18, 19, 20.
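Also: peptides expressed intracellularly from a pBAD plasmid library in pooled LB shake-flask culture, induced with 0.3% L-arabinose, DNA abundance read by NGS, three biological replicates, DESeq2 with apeglm shrinkage.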

| Sequence | shrunken log2 fold change |
| --- | --- |
| RRIRHRPPRLPRPRPRPEAWPRP | 0.0548 |
| RRIRRRPPRLPRPRPRPDHCPRP | -0.0402 |
| RRIRRRPPRLPRPRPRPIWDPRP | 0.604 |
| RRIRTRPPRLPRPRPRPQHKPRP | -0.0821 |
| RRIRFRPPRLPRPRPRPSVQPRP | -0.241 |
| RRIRARPPRLPRPRPRPFPDPRP | 0.262 |
| RRIRTRPPRLPRPRPRPVGYPRP | 0.35 |
| RRIRWRPPRLPRPRPRPTVNPRP | 0.0302 |
| RRIRNRPPRLPRPRPRPMFGPRP | -0.23 |
| RRIRFRPPRLPRPRPRPWTRPRP | -0.0481 |
| RRIRFRPPRLPRPRPRPNCCPRP | 0.0101 |
| RRIRLRPPRLPRPRPRPREPPRP | 0.139 |
| RRIRARPPRLPRPRPRPMDVPRP | 0.241 |
| RRIRERPPRLPRPRPRPMDRPRP | 0.0196 |
| RRIRFRPPRLPRPRPRPAVHPRP | -0.0819 |
| RRIRWRPPRLPRPRPRPPKHPRP | 0.272 |
| RRIRRRPPRLPRPRPRPSYLPRP | -0.36 |
| RRIRDRPPRLPRPRPRPGMCPRP | 0.432 |
| RRIRIRPPRLPRPRPRPEQDPRP | 0.0197 |
| RRIRGRPPRLPRPRPRPDAVPRP | 1.81 |
| RRIRRRPPRLPRPRPRPPFAPRP | 0.739 |
| RRIRARPPRLPRPRPRPTTQPRP | 0.584 |
| RRIRERPPRLPRPRPRPHCHPRP | -0.657 |
| RRIRLRPPRLPRPRPRPFESPRP | -0.168 |
| RRIRIRPPRLPRPRPRPEESPRP | 0.124 |

| Sequence | shrunken log2 fold change |
| --- | --- |
| RRIRRRPPRLPRPRPRPWCTPRP | -0.0123 |
| RRIRPRPPRLPRPRPRPYQWPRP | -0.124 |
| RRIRPRPPRLPRPRPRPYYCPRP | -0.718 |
| RRIRIRPPRLPRPRPRPPMTPRP | -0.0813 |
| RRIRCRPPRLPRPRPRPMGEPRP | 0.0249 |
| RRIRGRPPRLPRPRPRPKGHPRP | 0.67 |
| RRIRYRPPRLPRPRPRPAEPPRP | 0.0314 |
| RRIRCRPPRLPRPRPRPVIYPRP | -0.493 |
| RRIRARPPRLPRPRPRPGGMPRP | 0.337 |
| RRIRIRPPRLPRPRPRPQRDPRP | 0.0634 |
| RRIRKRPPRLPRPRPRPECYPRP | -0.0555 |
| RRIRSRPPRLPRPRPRPIFTPRP | -0.275 |
| RRIRLRPPRLPRPRPRPWGVPRP | 0.0612 |
| RRIRERPPRLPRPRPRPHQNPRP | 0.0506 |
| RRIRTRPPRLPRPRPRPWSTPRP | -0.14 |
| RRIRDRPPRLPRPRPRPCICPRP | 0.159 |
| RRIRHRPPRLPRPRPRPSKGPRP | -0.149 |
| RRIRNRPPRLPRPRPRPYSCPRP | -1.1 |
| RRIRARPPRLPRPRPRPCYVPRP | -0.279 |
| RRIRPRPPRLPRPRPRPKCTPRP | -0.0758 |
| RRIRRRPPRLPRPRPRPRQEPRP | 0.123 |
| RRIRRRPPRLPRPRPRPRKYPRP | -0.33 |
| RRIRGRPPRLPRPRPRPWPFPRP | 0.745 |
| RRIRGRPPRLPRPRPRPICFPRP | 0.535 |
| RRIRSRPPRLPRPRPRPLIWPRP | 0.312 |

| Sequence | shrunken log2 fold change |
| --- | --- |
| RRIRQRPPRLPRPRPRPAEAPRP | 0.61 |
| RRIRARPPRLPRPRPRPFHIPRP | -0.906 |
| RRIRHRPPRLPRPRPRPYFIPRP | -1.14 |
| RRIRGRPPRLPRPRPRPREMPRP | 1.2 |
| RRIRKRPPRLPRPRPRPVSNPRP | -0.212 |
| RRIRDRPPRLPRPRPRPQHMPRP | -0.11 |
| RRIRTRPPRLPRPRPRPQMPPRP | 0.588 |
| RRIRKRPPRLPRPRPRPVKGPRP | 0.322 |
| RRIRCRPPRLPRPRPRPVSHPRP | -0.0571 |
| RRIRNRPPRLPRPRPRPWDKPRP | 0.0447 |
| RRIRFRPPRLPRPRPRPPCMPRP | -0.125 |
| RRIRSRPPRLPRPRPRPPRVPRP | 0.142 |
| RRIRQRPPRLPRPRPRPYFEPRP | -0.524 |
| RRIRPRPPRLPRPRPRPWNGPRP | 0.0165 |
| RRIRQRPPRLPRPRPRPRFRPRP | 0.0281 |
| RRIRHRPPRLPRPRPRPNEFPRP | -0.00664 |
| RRIRQRPPRLPRPRPRPVWTPRP | 0.0102 |
| RRIRTRPPRLPRPRPRPTTCPRP | -0.00487 |
| RRIRTRPPRLPRPRPRPRFYPRP | -0.367 |
| RRIRVRPPRLPRPRPRPIVLPRP | -0.176 |
| RRIRYRPPRLPRPRPRPYCRPRP | -0.377 |
| RRIRWRPPRLPRPRPRPFKNPRP | -0.274 |
| RRIRKRPPRLPRPRPRPRNSPRP | -0.0385 |
| RRIRDRPPRLPRPRPRPESIPRP | -0.0509 |
| RRIRSRPPRLPRPRPRPMEVPRP | -0.00803 |

| Sequence | shrunken log2 fold change |
| --- | --- |
| RRIRVRPPRLPRPRPRPPWIPRP | 0.218 |
| RRIRRRPPRLPRPRPRPFDEPRP | 0.0762 |
| RRIRHRPPRLPRPRPRPALRPRP | 0.269 |
| RRIRLRPPRLPRPRPRPDPQPRP | -0.00554 |
| RRIRPRPPRLPRPRPRPWGCPRP | -0.0706 |
| RRIRPRPPRLPRPRPRPCVGPRP | 0.267 |
| RRIRPRPPRLPRPRPRPTQYPRP | 0.287 |
| RRIRNRPPRLPRPRPRPMVSPRP | -0.145 |
| RRIRVRPPRLPRPRPRPQWMPRP | -0.105 |
| RRIRARPPRLPRPRPRPKCKPRP | 0.278 |
| RRIRYRPPRLPRPRPRPNRQPRP | -0.053 |
| RRIRHRPPRLPRPRPRPSERPRP | -0.0252 |
| RRIRTRPPRLPRPRPRPWATPRP | -0.00422 |
| RRIRWRPPRLPRPRPRPAYVPRP | 0.0521 |
| RRIRQRPPRLPRPRPRPFCFPRP | 0.117 |
| RRIRLRPPRLPRPRPRPVCAPRP | 0.174 |
| RRIRSRPPRLPRPRPRPNCCPRP | -0.105 |
| RRIRWRPPRLPRPRPRPFCIPRP | -0.293 |
| RRIRFRPPRLPRPRPRPMWKPRP | -0.0148 |
| RRIRYRPPRLPRPRPRPDWFPRP | -0.987 |
| RRIRERPPRLPRPRPRPKPYPRP | 0.082 |
| RRIRIRPPRLPRPRPRPASMPRP | -0.281 |
| RRIRLRPPRLPRPRPRPSQMPRP | -0.261 |
| RRIRFRPPRLPRPRPRPAHFPRP | 0.0115 |
| RRIRFRPPRLPRPRPRPALLPRP | -0.00442 |

| Sequence | shrunken log2 fold change |
| --- | --- |
| RRIRQRPPRLPRPRPRPESAPRP | 0.208 |
| RRIRVRPPRLPRPRPRPHCIPRP | -0.551 |
| RRIRMRPPRLPRPRPRPSRDPRP | 0.257 |
| RRIRERPPRLPRPRPRPCAKPRP | 0.00616 |
| RRIRMRPPRLPRPRPRPDKQPRP | 0.0746 |
| RRIRIRPPRLPRPRPRPLQLPRP | -0.573 |
| RRIRIRPPRLPRPRPRPWSMPRP | -0.00809 |
| RRIRTRPPRLPRPRPRPGWWPRP | 0.158 |
| RRIRKRPPRLPRPRPRPRRYPRP | 0.47 |
| RRIRRRPPRLPRPRPRPKRRPRP | 0.525 |
| RRIRMRPPRLPRPRPRPTHWPRP | 0.864 |
| RRIRQRPPRLPRPRPRPLIGPRP | -0.285 |
| RRIRSRPPRLPRPRPRPTTKPRP | 0.0807 |
| RRIRFRPPRLPRPRPRPSKFPRP | -0.434 |
| RRIRMRPPRLPRPRPRPNFYPRP | -0.00797 |
| RRIRSRPPRLPRPRPRPDMYPRP | 0.00612 |
| RRIRYRPPRLPRPRPRPGAKPRP | 0.379 |
| RRIRPRPPRLPRPRPRPWMPPRP | -0.00504 |
| RRIRDRPPRLPRPRPRPNTTPRP | -0.0542 |
| RRIRSRPPRLPRPRPRPANCPRP | -0.411 |
| RRIRTRPPRLPRPRPRPIALPRP | -0.156 |
| RRIRLRPPRLPRPRPRPLVNPRP | -0.346 |
| RRIRKRPPRLPRPRPRPANWPRP | 0.596 |
| RRIRTRPPRLPRPRPRPITWPRP | -0.252 |
| RRIRSRPPRLPRPRPRPHWIPRP | -0.279 |

| Sequence | shrunken log2 fold change |
| --- | --- |
| RRIRIRPPRLPRPRPRPKFLPRP | -0.537 |
| RRIRARPPRLPRPRPRPYWVPRP | -0.57 |
| RRIRVRPPRLPRPRPRPLTCPRP | -0.187 |
| RRIRPRPPRLPRPRPRPFDFPRP | -0.206 |
| RRIRSRPPRLPRPRPRPRSKPRP | 0.0951 |
| RRIRARPPRLPRPRPRPDWFPRP | 0.408 |
| RRIRWRPPRLPRPRPRPFGFPRP | 0.321 |
| RRIRFRPPRLPRPRPRPVKTPRP | 0.0856 |
| RRIRTRPPRLPRPRPRPSYNPRP | -0.591 |
| RRIRQRPPRLPRPRPRPGFDPRP | 2.69 |
| RRIRFRPPRLPRPRPRPCVRPRP | -0.0911 |
| RRIRARPPRLPRPRPRPKYKPRP | -0.31 |
| RRIRSRPPRLPRPRPRPLLFPRP | -0.129 |
| RRIRTRPPRLPRPRPRPWQKPRP | -0.1 |
| RRIRARPPRLPRPRPRPEWPPRP | 0.591 |
| RRIRERPPRLPRPRPRPDNHPRP | -0.802 |
| RRIRGRPPRLPRPRPRPRTAPRP | 1.12 |
| RRIRQRPPRLPRPRPRPTHYPRP | 0.975 |
| RRIRERPPRLPRPRPRPMTTPRP | -0.023 |
| RRIRLRPPRLPRPRPRPNWMPRP | -0.296 |
| RRIRIRPPRLPRPRPRPTLPPRP | 0.0197 |
| RRIRFRPPRLPRPRPRPGPYPRP | -0.0125 |
| RRIRARPPRLPRPRPRPSHEPRP | 0.415 |
| RRIRNRPPRLPRPRPRPYCSPRP | -0.0619 |
| RRIRRRPPRLPRPRPRPLSFPRP | -0.0589 |
